According to PMC9482650, “Quantitative fragmentomics allow affinity mapping of interactomes” (Nature Communications, 2022):

Key:
Assay in all cases: holdup assay
Set-up in all cases: key: below the threshold = too weak to quantify, mostly under pKd 3.1 to 4
Conditions in all cases: plain residues with an end cap or a label only (N-terminal biotin on a linker: ado-ado)
CARD11, Q9BXL7 = target: T1, CARD11, Q9BXL7
T1 sequence (Q9BXL7 662-765, limits assumed, looked up): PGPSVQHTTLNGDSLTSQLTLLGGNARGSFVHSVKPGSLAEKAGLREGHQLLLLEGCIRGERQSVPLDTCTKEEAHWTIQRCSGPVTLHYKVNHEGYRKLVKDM

DFNB31_1, Q9P202 = target: T2, DFNB31_1, Q9P202
T2 sequence (Q9P202 135-233, limits assumed, looked up): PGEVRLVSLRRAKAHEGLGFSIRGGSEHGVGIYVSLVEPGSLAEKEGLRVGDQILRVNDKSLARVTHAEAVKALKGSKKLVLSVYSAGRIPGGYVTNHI

DFNB31_2, Q9P202 = target: T3, DFNB31_2, Q9P202
T3 sequence (Q9P202 274-371, limits assumed, looked up): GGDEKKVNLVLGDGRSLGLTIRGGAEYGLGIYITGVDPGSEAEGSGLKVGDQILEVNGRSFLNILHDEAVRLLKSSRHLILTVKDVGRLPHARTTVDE

DLG4_1, P78352 = target: DLG4_1, P78352
Sequence of DLG4_1, P78352 (P78352 62-152): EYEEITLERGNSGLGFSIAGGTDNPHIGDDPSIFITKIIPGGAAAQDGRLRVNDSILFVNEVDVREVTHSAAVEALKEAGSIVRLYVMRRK

GIPC2, Q8TF65 = target: GIPC2, Q8TF65
Sequence of GIPC2, Q8TF65 (Q8TF65 112-203): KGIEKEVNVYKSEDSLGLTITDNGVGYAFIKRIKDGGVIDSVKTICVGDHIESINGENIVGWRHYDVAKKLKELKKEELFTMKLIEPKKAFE

GRASP, Q7Z6J2 = target: GRASP, Q7Z6J2
Sequence of GRASP, Q7Z6J2 (Q7Z6J2 96-193): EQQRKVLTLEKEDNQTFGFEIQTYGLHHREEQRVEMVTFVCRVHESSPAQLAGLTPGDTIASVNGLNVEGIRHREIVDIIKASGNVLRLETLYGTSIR

GRID2IP_2, A4D2P6 = target: GRID2IP_2, A4D2P6
Sequence of GRID2IP_2, A4D2P6 (A4D2P6 272-370): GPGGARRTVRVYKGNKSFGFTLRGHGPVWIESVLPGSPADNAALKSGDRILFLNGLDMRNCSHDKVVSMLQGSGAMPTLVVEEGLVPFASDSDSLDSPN

GRIP1_4, Q9Y3R0 = target: T4, GRIP1_4, Q9Y3R0
T4 sequence (Q9Y3R0 467-571, limits assumed, looked up): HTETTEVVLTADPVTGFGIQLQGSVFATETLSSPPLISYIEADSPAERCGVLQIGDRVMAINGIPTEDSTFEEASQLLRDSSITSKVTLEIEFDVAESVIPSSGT

IL16_1, Q14005 = target: IL16_1, Q14005
Sequence of IL16_1, Q14005 (Q14005 210-306): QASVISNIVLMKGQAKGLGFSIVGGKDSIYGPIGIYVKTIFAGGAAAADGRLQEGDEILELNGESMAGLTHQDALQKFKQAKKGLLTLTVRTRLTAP

Inadl_9, Q8NI35 = target: Inadl_9, Q8NI35
Sequence of Inadl_9, Q8NI35 (Q8NI35 1530-1615): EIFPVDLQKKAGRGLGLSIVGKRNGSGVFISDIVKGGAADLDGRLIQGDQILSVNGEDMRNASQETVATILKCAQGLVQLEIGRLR

LDB3, O75112 = target: LDB3, O75112
Sequence of LDB3, O75112 (O75112 1-94): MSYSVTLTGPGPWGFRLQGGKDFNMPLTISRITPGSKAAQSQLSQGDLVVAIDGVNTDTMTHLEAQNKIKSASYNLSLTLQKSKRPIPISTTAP

LNX1_1, Q8TBB1 = target: LNX1_1, Q8TBB1
Sequence of LNX1_1, Q8TBB1 (Q8TBB1 261-371): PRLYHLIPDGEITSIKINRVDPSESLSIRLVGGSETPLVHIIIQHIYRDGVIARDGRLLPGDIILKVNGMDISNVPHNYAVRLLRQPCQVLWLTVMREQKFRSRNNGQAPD

LNX2_2, Q8N448 = target: T5, LNX2_2, Q8N448
T5 sequence (Q8N448 334-432, limits assumed, looked up): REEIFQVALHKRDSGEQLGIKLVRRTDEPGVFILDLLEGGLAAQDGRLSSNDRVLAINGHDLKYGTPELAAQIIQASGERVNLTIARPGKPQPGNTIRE

MAGI1_1, Q96QZ7 = target: MAGI1_1, Q96QZ7
Sequence of MAGI1_1, Q96QZ7 (Q96QZ7 1-106): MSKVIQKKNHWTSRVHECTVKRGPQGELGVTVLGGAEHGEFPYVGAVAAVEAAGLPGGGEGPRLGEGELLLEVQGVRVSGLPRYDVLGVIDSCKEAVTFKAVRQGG

MAGI2_6, Q86UL8 = target: MAGI2_6, Q86UL8
Sequence of MAGI2_6, Q86UL8 (Q86UL8 1141-1229): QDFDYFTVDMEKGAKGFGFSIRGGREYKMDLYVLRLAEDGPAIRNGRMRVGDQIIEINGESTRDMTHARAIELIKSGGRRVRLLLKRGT

MPP2, Q14168 = target: T6, MPP2, Q14168
T6 sequence (Q14168 180-250, limits assumed, looked up): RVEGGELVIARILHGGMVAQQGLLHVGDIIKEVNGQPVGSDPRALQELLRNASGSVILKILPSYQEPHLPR

NHERF2_2, Q15599 = target: NHERF2_2, Q15599
Sequence of NHERF2_2, Q15599 (Q15599 142-238): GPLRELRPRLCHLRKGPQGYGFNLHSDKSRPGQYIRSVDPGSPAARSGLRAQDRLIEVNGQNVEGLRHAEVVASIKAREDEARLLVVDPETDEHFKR

NHERF4_1, Q86UT5-2 = target: NHERF4_1, Q86UT5-2
Sequence of NHERF4_1, Q86UT5-2 (Q86UT5 other isoform, or with tags, fused parts or gaps): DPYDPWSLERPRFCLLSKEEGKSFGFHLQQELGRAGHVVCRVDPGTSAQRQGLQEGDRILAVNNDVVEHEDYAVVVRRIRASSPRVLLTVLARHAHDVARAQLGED

PARD3B_1, Q8TEW8 = target: T7, PARD3B_1, Q8TEW8
T7 sequence (Q8TEW8 196-299, limits assumed, looked up): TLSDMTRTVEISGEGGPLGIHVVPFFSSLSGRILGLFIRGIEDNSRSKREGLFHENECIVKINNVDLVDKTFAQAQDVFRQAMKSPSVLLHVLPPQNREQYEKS

PDZD7_3, Q9H5P4 = target: T8, PDZD7_3, Q9H5P4
T8 sequence (Q9H5P4 857-944, limits assumed, looked up): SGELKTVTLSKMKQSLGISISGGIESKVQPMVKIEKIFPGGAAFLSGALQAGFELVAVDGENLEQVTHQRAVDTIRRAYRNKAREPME

PTPN13_1, Q12923 = target: T9, PTPN13_1, Q12923
T9 sequence (Q12923 1088-1188, limits assumed, looked up): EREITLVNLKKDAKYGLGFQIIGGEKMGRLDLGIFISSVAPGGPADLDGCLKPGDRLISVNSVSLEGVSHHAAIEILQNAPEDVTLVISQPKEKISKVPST

SCRIB_3, Q14160 = target: SCRIB_3, Q14160
Sequence of SCRIB_3, Q14160 (Q14160 999-1103): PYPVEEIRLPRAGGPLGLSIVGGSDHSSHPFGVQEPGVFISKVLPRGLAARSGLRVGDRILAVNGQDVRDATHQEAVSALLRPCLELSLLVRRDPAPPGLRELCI

SHANK1, Q9Y566 = target: T10, SHANK1, Q9Y566
T10 sequence (Q9Y566 658-767, limits assumed, looked up): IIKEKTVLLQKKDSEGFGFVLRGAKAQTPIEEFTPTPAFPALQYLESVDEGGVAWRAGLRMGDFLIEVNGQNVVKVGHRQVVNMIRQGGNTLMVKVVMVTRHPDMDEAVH

SIPA1L2, Q9P2F8 = target: T11, SIPA1L2, Q9P2F8
T11 sequence (Q9P2F8 945-1036, limits assumed, looked up): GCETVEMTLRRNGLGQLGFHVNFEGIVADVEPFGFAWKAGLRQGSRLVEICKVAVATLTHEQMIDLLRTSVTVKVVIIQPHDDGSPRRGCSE

SNTG2, Q9NY99 = target: T12, SNTG2, Q9NY99
T12 sequence (Q9NY99 68-166, limits assumed, looked up): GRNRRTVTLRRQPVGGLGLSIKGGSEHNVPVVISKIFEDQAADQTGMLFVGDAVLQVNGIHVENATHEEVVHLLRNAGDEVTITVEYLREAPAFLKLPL

**Q.** What does the source list for GTMFLRETSL [GUCY1A2, P33402]?
**A.** pKd (CARD11, Q9BXL7): below the threshold; pKd (DFNB31_1, Q9P202): 4.85; pKd (DFNB31_2, Q9P202): 4.53; pKd (DLG4_1, P78352): 4.03; pKd (GIPC2, Q8TF65): 4; pKd (GRASP, Q7Z6J2): 4.73; pKd (GRID2IP_2, A4D2P6): 4.62; pKd (GRIP1_4, Q9Y3R0): below the threshold; pKd (IL16_1, Q14005): 4.47; pKd (Inadl_9, Q8NI35): below the threshold; pKd (LDB3, O75112): below the threshold; pKd (LNX1_1, Q8TBB1): 3.73; pKd (LNX2_2, Q8N448): below the threshold; pKd (MAGI1_1, Q96QZ7): below the threshold; pKd (MAGI2_6, Q86UL8): 4.51; pKd (MPP2, Q14168): below the threshold; pKd (NHERF2_2, Q15599): 4.56; pKd (NHERF4_1, Q86UT5-2): 4.54; pKd (PARD3B_1, Q8TEW8): 3.88; pKd (PDZD7_3, Q9H5P4): 4.97; pKd (PTPN13_1, Q12923): below the threshold; pKd (SCRIB_3, Q14160): 5.37; pKd (SHANK1, Q9Y566): 4.33; pKd (SIPA1L2, Q9P2F8): below the threshold; pKd (SNTG2, Q9NY99): 5.27

**Q.** How did the pKd (CARD11, Q9BXL7) turn out when IKLETKKTKL [SLC15A2, Q16348] was run?
**A.** below the threshold

**Q.** What about the pKd (DFNB31_1, Q9P202) of the same binder?
**A.** 3.79

**Q.** What about the pKd (DFNB31_2, Q9P202) of the same binder?
**A.** 3.55

**Q.** And the pKd (DLG4_1, P78352)?
**A.** 3.69

**Q.** And the pKd (GIPC2, Q8TF65)?
**A.** below the threshold

**Q.** What about the pKd (GRASP, Q7Z6J2) of the same binder?
**A.** 4.42

**Q.** What about the pKd (GRID2IP_2, A4D2P6) of the same binder?
**A.** 4.71

**Q.** And the pKd (GRIP1_4, Q9Y3R0)?
**A.** below the threshold

**Q.** What about the pKd (IL16_1, Q14005) of the same binder?
**A.** below the threshold

**Q.** And the pKd (Inadl_9, Q8NI35)?
**A.** below the threshold

**Q.** And the pKd (LDB3, O75112)?
**A.** below the threshold

**Q.** And the pKd (LNX1_1, Q8TBB1)?
**A.** 3.79

**Q.** What about the pKd (LNX2_2, Q8N448) of the same binder?
**A.** below the threshold

**Q.** What about the pKd (MAGI1_1, Q96QZ7) of the same binder?
**A.** below the threshold

**Q.** And the pKd (MAGI2_6, Q86UL8)?
**A.** below the threshold

**Q.** What about the pKd (MPP2, Q14168) of the same binder?
**A.** below the threshold

**Q.** And the pKd (NHERF2_2, Q15599)?
**A.** 4.32

**Q.** What about the pKd (NHERF4_1, Q86UT5-2) of the same binder?
**A.** 4.27

**Q.** And the pKd (PARD3B_1, Q8TEW8)?
**A.** 3.77

**Q.** And the pKd (PDZD7_3, Q9H5P4)?
**A.** 4.75

**Q.** And the pKd (PTPN13_1, Q12923)?
**A.** 3.56

**Q.** What about the pKd (SCRIB_3, Q14160) of the same binder?
**A.** 3.77

**Q.** And the pKd (SHANK1, Q9Y566)?
**A.** 4.85

**Q.** And the pKd (SIPA1L2, Q9P2F8)?
**A.** 3.62

**Q.** And the pKd (SNTG2, Q9NY99)?
**A.** 3.62

**Q.** For FVFESRKEIL [TBPL1, P62380], which pKd (CARD11, Q9BXL7) is on record?
**A.** below the threshold

**Q.** What about the pKd (DFNB31_1, Q9P202) of the same binder?
**A.** below the threshold

**Q.** What about the pKd (DFNB31_2, Q9P202) of the same binder?
**A.** below the threshold

**Q.** And the pKd (DLG4_1, P78352)?
**A.** below the threshold

**Q.** And the pKd (GIPC2, Q8TF65)?
**A.** below the threshold

**Q.** What about the pKd (GRASP, Q7Z6J2) of the same binder?
**A.** 4.72

**Q.** And the pKd (GRID2IP_2, A4D2P6)?
**A.** below the threshold

**Q.** And the pKd (GRIP1_4, Q9Y3R0)?
**A.** below the threshold

**Q.** What about the pKd (IL16_1, Q14005) of the same binder?
**A.** below the threshold

**Q.** What about the pKd (Inadl_9, Q8NI35) of the same binder?
**A.** below the threshold

**Q.** What about the pKd (LDB3, O75112) of the same binder?
**A.** below the threshold

**Q.** And the pKd (LNX1_1, Q8TBB1)?
**A.** below the threshold

**Q.** What about the pKd (LNX2_2, Q8N448) of the same binder?
**A.** below the threshold

**Q.** And the pKd (MAGI1_1, Q96QZ7)?
**A.** below the threshold

**Q.** What about the pKd (MAGI2_6, Q86UL8) of the same binder?
**A.** below the threshold

**Q.** And the pKd (MPP2, Q14168)?
**A.** below the threshold

**Q.** What about the pKd (NHERF2_2, Q15599) of the same binder?
**A.** below the threshold

**Q.** And the pKd (NHERF4_1, Q86UT5-2)?
**A.** 4.08

**Q.** And the pKd (PARD3B_1, Q8TEW8)?
**A.** 4.12

**Q.** And the pKd (PDZD7_3, Q9H5P4)?
**A.** 3.99

**Q.** What about the pKd (PTPN13_1, Q12923) of the same binder?
**A.** below the threshold

**Q.** And the pKd (SCRIB_3, Q14160)?
**A.** below the threshold

**Q.** What about the pKd (SHANK1, Q9Y566) of the same binder?
**A.** below the threshold

**Q.** And the pKd (SIPA1L2, Q9P2F8)?
**A.** below the threshold

**Q.** What about the pKd (SNTG2, Q9NY99) of the same binder?
**A.** below the threshold

**Q.** How did the pKd (CARD11, Q9BXL7) turn out when PLATCDETSI [SEMA4F, O95754] was run?
**A.** below the threshold

**Q.** And the pKd (DFNB31_1, Q9P202)?
**A.** 5.13

**Q.** What about the pKd (DFNB31_2, Q9P202) of the same binder?
**A.** below the threshold

**Q.** What about the pKd (DLG4_1, P78352) of the same binder?
**A.** below the threshold

**Q.** And the pKd (GIPC2, Q8TF65)?
**A.** 3.52

**Q.** And the pKd (GRASP, Q7Z6J2)?
**A.** below the threshold

**Q.** What about the pKd (GRID2IP_2, A4D2P6) of the same binder?
**A.** below the threshold

**Q.** And the pKd (GRIP1_4, Q9Y3R0)?
**A.** below the threshold

**Q.** What about the pKd (IL16_1, Q14005) of the same binder?
**A.** below the threshold

**Q.** And the pKd (Inadl_9, Q8NI35)?
**A.** below the threshold

**Q.** And the pKd (LDB3, O75112)?
**A.** below the threshold

**Q.** And the pKd (LNX1_1, Q8TBB1)?
**A.** below the threshold

**Q.** And the pKd (LNX2_2, Q8N448)?
**A.** 3.52

**Q.** And the pKd (MAGI1_1, Q96QZ7)?
**A.** below the threshold

**Q.** And the pKd (MAGI2_6, Q86UL8)?
**A.** 3.87

**Q.** And the pKd (MPP2, Q14168)?
**A.** below the threshold

**Q.** And the pKd (NHERF2_2, Q15599)?
**A.** 4.31

**Q.** And the pKd (NHERF4_1, Q86UT5-2)?
**A.** below the threshold

**Q.** What about the pKd (PARD3B_1, Q8TEW8) of the same binder?
**A.** below the threshold

**Q.** And the pKd (PDZD7_3, Q9H5P4)?
**A.** 4.43

**Q.** And the pKd (PTPN13_1, Q12923)?
**A.** below the threshold

**Q.** What about the pKd (SCRIB_3, Q14160) of the same binder?
**A.** 4.81

**Q.** What about the pKd (SHANK1, Q9Y566) of the same binder?
**A.** 3.87

**Q.** And the pKd (SIPA1L2, Q9P2F8)?
**A.** below the threshold

**Q.** What about the pKd (SNTG2, Q9NY99) of the same binder?
**A.** 4.55
